Measured values taken from PMC8861134.

Experiments:
[1] = molecular target: Glucose-6-phosphate dehydrogenase E347A, tetramer-impaired synthetic mutant (human) (UniProt P11413); assay: native gel or EMSA; partial native PAGE (P-Native PAGE): 850 nM protein in 50 mM Tris pH 7.4, 150 mM NaCl, 23 °C, 30 min; sample buffer without SDS and BME, not boiled, run on SDS-PAGE, Western blot, quantified with Fiji; step: dimer to monomers
[2] = molecular target: Glucose-6-phosphate dehydrogenase K403Q (human) (UniProt P11413); assay: SEC; analytical SEC, Superdex 75 10/300 GL, 0.4 ml/min; 500 nM G6PD incubated 30 min at 23 °C in 80 mM sodium phosphate pH 8.0, with or without 10 μM NADP+; percentages in monomer equivalents; step: monomers to dimer

| Substance | percent in monomeric form [1] | percent dimer [2] |
| --- | --- | --- |
| Glucose-6-phosphate dehydrogenase E347A, tetramer-impaired synthetic mutant (from UniProt P11413 1-515) (enzyme) | 80% |  |
| Glucose-6-phosphate dehydrogenase K403Q (from UniProt P11413 1-515) (enzyme) |  | 74% |
